Experimental data reported in patent US20220411525A1, “BCMA AS A TARGET FOR T CELL REDIRECTING ANTIBODIES IN B CELL LYMPHOMAS” (Janssen Pharmaceutica NV, priority 2021, published 2022).

Target: B cell maturation antigen (BCMA) (human) (UniProt Q02223)
Experiment: cell-based or functional assay

Sequence of B cell maturation antigen (BCMA) (human) (Q02223 whole entry): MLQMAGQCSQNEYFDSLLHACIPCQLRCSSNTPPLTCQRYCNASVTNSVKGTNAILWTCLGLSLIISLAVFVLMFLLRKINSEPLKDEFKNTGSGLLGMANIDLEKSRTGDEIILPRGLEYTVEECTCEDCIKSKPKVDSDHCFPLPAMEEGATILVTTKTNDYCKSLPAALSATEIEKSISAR

BCMAxCD3 DuoBody Teclistamab (JNJ-64007957) (bispecific antibody)
average cell death of primary CLL cells, HD PBMCs 10:1 E:T, 96 h, 100 ng/mL, no γ-secretase inhibitor (first T cell donor): 15.8% | average cell death of primary CLL cells, HD PBMCs 10:1 E:T, 96 h, 100 ng/mL, no γ-secretase inhibitor (second T cell donor): 20% | average cell death of primary CLL cells, HD PBMCs 10:1 E:T, 96 h, 100 ng/mL, with 100 nM γ-secretase inhibitor (first T cell donor): 25.8% | average cell death of primary CLL cells, HD PBMCs 10:1 E:T, 96 h, 100 ng/mL, with 100 nM γ-secretase inhibitor (second T cell donor): 27.4% | average lysis of primary CLL cells, HD PBMCs 10:1 E:T, 48 h, 100 ng/mL, no γ-secretase inhibitor (first T cell donor): 12.9% | average lysis of primary CLL cells, HD PBMCs 10:1 E:T, 48 h, 100 ng/mL, no γ-secretase inhibitor (second T cell donor): 16.4% | average lysis of primary CLL cells, HD PBMCs 10:1 E:T, 48 h, 100 ng/mL, with 100 nM γ-secretase inhibitor (first T cell donor): 14.9% | average lysis of primary CLL cells, HD PBMCs 10:1 E:T, 48 h, 100 ng/mL, with 100 nM γ-secretase inhibitor (second T cell donor): 21.6% | lysis of primary CLL cells by HD CD8+ T cells, 5:1 E:T, 96 h, 100 ng/mL: < 60% | mean lysis of primary CLL cells by autologous CLL derived T cells, 5:1 E:T, 96 h, 100 ng/mL: 40%
